# T1: TgPK1 (T. gondii pyruvate kinase 1), full length (Toxoplasma gondii, UniProt Q969A2)
# T1 construct: gene pk; full length Met1-Glu531, N-terminal His6 tag and TEV site, tag kept; synthetic gene, expressed in E. coli; homotetramer
# T1 sequence (Q969A2 1-531): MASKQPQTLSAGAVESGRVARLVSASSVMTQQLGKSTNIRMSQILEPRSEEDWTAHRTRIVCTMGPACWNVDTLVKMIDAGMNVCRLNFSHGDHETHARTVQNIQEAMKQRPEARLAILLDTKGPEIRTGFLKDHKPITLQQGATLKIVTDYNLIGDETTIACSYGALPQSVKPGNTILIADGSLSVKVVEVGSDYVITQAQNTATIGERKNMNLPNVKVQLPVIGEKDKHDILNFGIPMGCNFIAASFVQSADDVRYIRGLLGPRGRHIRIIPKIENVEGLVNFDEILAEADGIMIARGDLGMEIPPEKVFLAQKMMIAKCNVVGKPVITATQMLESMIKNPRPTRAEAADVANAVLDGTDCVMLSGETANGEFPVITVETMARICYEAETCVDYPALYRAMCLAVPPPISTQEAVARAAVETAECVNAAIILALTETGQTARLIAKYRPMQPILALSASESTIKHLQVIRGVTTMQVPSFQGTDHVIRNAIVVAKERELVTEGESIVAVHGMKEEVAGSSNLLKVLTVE
# Key:
# [1] = target: T1, TgPK1 (T. gondii pyruvate kinase 1), full length; assay: lactate dehydrogenase-coupled NADH assay, Hill fit; assay type: biochemical; details: allosteric activator; 1 mM effector, PEP varied 0.01 to 10 mM, 2 mM ADP, 50 mM KCl, 20 mM MgCl2, pH 7.5
# [2] = target: Toxoplasma gondii pyruvate kinase 1, N-terminally truncated (Ile39 to Glu531) (Toxoplasma gondii); assay: SEC; Superdex 200 26/60 in 10 mM HEPES pH 7.5, 500 mM NaCl; oligomeric state from the elution volume (164 mL full length, 168 mL truncated); profile not shown
# [3] = target: Toxoplasma gondii pyruvate kinase 1, N-terminally truncated (Ile39 to Glu531) (Toxoplasma gondii); assay: crystal structure; truncated TgPK1 crystallised with K+ and Mg2+; 15% PEG3350, 100 mM succinic acid pH 7.0; the asymmetric unit is a tetramer
# [4] = target: Toxoplasma gondii pyruvate kinase 1, full length (Met1 to Glu531) (Toxoplasma gondii) (UniProt Q27006); assay: SEC; Superdex 200 26/60 in 10 mM HEPES pH 7.5, 500 mM NaCl; oligomeric state from the elution volume (164 mL full length, 168 mL truncated); profile not shown
# [5] = target: Toxoplasma gondii pyruvate kinase 1, full length (Met1 to Glu531) (Toxoplasma gondii) (UniProt Q27006); assay: crystal structure; full TgPK1 crystallised without substrates, effectors or added ions; 19% PEG3350, 100 mM BisTris pH 6.0, 200 mM NH4I; the asymmetric unit is a tetramer
# [6] = substrate: C=C(OP(=O)(O)O)C(=O)O; assay: lactate dehydrogenase-coupled NADH assay, Hill fit; assay type: biochemical, Toxoplasma gondii; details: no sugar effector, cooperative (Hill), 2 mM ADP, 50 mM KCl, 20 mM MgCl2, 50 mM HEPES pH 7.5, room temperature
# Description: lactate dehydrogenase-coupled NADH assay, Hill fit on TgPK1 (T. gondii pyruvate kinase 1), full length
molecule,measurement,setting,value
"O=P(O)(O)OC[C@H]1OC(O)[C@H](O)[C@@H](O)[C@@H]1O (stereo partly shown) [G6P, glucose-6-phosphate]","lactate dehydrogenase-coupled NADH assay, Hill fit",[1],G6P showed a classic allosteric activation with a six-fold reduction in the apparent Km
"Toxoplasma gondii pyruvate kinase 1, N-terminally truncated (Ile39 to Glu531) (domain or fragment)",stoichiometry N,[2],4
same,stoichiometry N,[3],4
"Toxoplasma gondii pyruvate kinase 1, full length (Met1 to Glu531) (from UniProt Q27006 1-509) (enzyme)",stoichiometry N,[4],4
same,stoichiometry N,[5],4
"TgPK1 (T. gondii pyruvate kinase 1), full length (Toxoplasma gondii) (protein, full length Met1-Glu531, N-terminal His6 tag and TEV site, tag kept; synthetic gene, expressed in E. coli; homotetramer) MASKQPQTLSAGAVESGRVARLVSASSVMTQQLGKSTNIRMSQILEPRSEEDWTAHRTRIVCTMGPACWNVDTLVKMIDAGMNVCRLNFSHGDHETHARTVQNIQEAMKQRPEARLAILLDTKGPEIRTGFLKDHKPITLQQGATLKIVTDYNLIGDETTIACSYGALPQSVKPGNTILIADGSLSVKVVEVGSDYVITQAQNTATIGERKNMNLPNVKVQLPVIGEKDKHDILNFGIPMGCNFIAASFVQSADDVRYIRGLLGPRGRHIRIIPKIENVEGLVNFDEILAEADGIMIARGDLGMEIPPEKVFLAQKMMIAKCNVVGKPVITATQMLESMIKNPRPTRAEAADVANAVLDGTDCVMLSGETANGEFPVITVETMARICYEAETCVDYPALYRAMCLAVPPPISTQEAVARAAVETAECVNAAIILALTETGQTARLIAKYRPMQPILALSASESTIKHLQVIRGVTTMQVPSFQGTDHVIRNAIVVAKERELVTEGESIVAVHGMKEEVAGSSNLLKVLTVE",Km,[6],750 ± 51 µM
same,Vmax,[6],42 µM/min
